According to paper PMC3983572:

Target: protein interacting with C kinase 1 (PICK1), recombinant full-length (UniProt Q9EP80)
Assay: fluorescence polarisation

Sequence of UniProt Q9EP80 (Q9EP80 whole entry): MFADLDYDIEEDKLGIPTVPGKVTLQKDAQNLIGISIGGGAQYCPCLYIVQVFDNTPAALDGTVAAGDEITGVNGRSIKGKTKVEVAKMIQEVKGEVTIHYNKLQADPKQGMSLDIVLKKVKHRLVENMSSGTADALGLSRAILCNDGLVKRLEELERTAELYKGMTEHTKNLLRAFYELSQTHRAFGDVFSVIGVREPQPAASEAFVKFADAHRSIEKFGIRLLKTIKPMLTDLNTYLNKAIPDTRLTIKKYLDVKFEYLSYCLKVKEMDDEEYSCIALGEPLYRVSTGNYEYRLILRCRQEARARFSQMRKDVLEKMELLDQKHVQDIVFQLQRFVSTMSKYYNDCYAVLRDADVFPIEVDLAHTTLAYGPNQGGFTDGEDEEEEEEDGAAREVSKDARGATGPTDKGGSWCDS

unlabeled GluA2 peptide
Ki: 24 µM
